# From US12419937B2, “High concentration alpha-glucosidase compositions for the treatment of Pompe disease” (Amicus Therapeutics, Inc., priority 2012, dated 2025)
# Tests used:
# [1] = reported; cited from earlier work
# GAA KO mice [2] = test: Myozyme® tissue uptake in GAA KO mice with and without oral 1-DNJ-HCl (Example 3); assay type: in vivo, mouse; conditions: 10 mg/kg IV weekly; 7 days post injection
# Experimental: Five groups of GAA KO mice were administered one of the following formulations: […]
# (2) 10 mg/kg of Myozyme® IV once per week, for up to three weeks
# Tissue homogenates were generated for analysis. Enzymatic activity as determined using a 4-MUG fluorogenic substrate assay.
# GAA KO mice [3] = test: Tissue glycogen reduction in GAA KO mice (Example 9); assay type: in vivo, mouse; conditions: Myozyme® 40 mg/kg IV every other week for 8 weeks ± 30 mg/kg oral 1-DNJ-HCl, relative to untreated mice
# Experimental: Glycogen reduction with Myozyme® alone was 93±1%, 41±4%, 69±3%, and 18±4%, in heart (A), diaphragm (B), soleus (C), and quadriceps (D), respectively, relative to untreated mice.
# Twelve-week old male GAA KO mice were administered a single dose of Myozyme® (40 mg/kg) via bolus tail vein injection every other week for 8 weeks. To prevent anaphylaxis, before the third and fourth Myozyme® injection, diphenhydramine (10 mg/kg intraperitoneally) was administered 10 min before Myozyme® injection. […] Mice were euthanized 14 days after the last Myozyme® administration.
# Glycogen levels in heart, diaphragm, soleus, and quadriceps were then measured. […] Briefly, homogenates were prepared by homogenizing ˜50 mg tissue for 3-5 seconds on ice with a microhomogenizer in […] deionized water. Supernatants were heat denatured (99° C. for 10 min) to remove endogenous amyloglucosidase activity. Denatured lysates (4 μL) were then analyzed in duplicate by addition of 36 μL water with and without 10 μL of 800 U/mL of amyloglucosidase (Sigma Aldrich, St. Louis, MO) and incubated for 1 hour at 50° C. The reaction was stopped by inactivation at 100° C. for 10 min. Finally, 200 μL of glucose reagent (Sigma) was added absorbance read at 340 nm on Spectramax. A standard curve ranging from 5 μg/mL to 400 μg/mL Type III rabbit liver glycogen (Sigma) was run each day for conversion of absorbance to absolute glycogen units. Simultaneously, the amount of protein was determined in tissue homogenates using the Micro BCA Protein Assay (Pierce, Rockford, IL) following the manufacturer's instructions. The glycogen content of each sample was normalized to protein, and data were finally expressed as micrograms of glycogen per milligram of protein (μg/mg protein).
# [4] = target: T1, recombinant human GAA (Myozyme®) (Homo sapiens, UniProt P10253); test: SYPRO Orange thermal stability assay (heat-induced denaturation); assay type: physicochemical; conditions: pH 5.2 vs pH 7.4; no ASSC
# T1 construct: purchased Genzyme Corp
# From the text: The thermal stability assay utilizes heat to induce protein denaturation, which is monitored using a SYPRO Orange dye that fluoresces upon binding to hydrophobic amino acids (which are not exposed in a folded protein).
# FIG. 5 depicts the results of a thermal stability assay that utilizes heat to induce protein denaturation, which is monitored using a SYPRO Orange dye that fluoresces upon binding to hydrophobic amino acids (which are not exposed in a folded protein).
# Denaturation is monitored using a SYPRO Orange dye that fluoresces upon binding to hydrophobic amino acids (which are not exposed in a folded protein).
# The thermal stability was performed at pH 7.4 for two formulations, which corresponds to the pH of the ER.
# GAA KO mice [5] = test: rhGAA activity uptake after Myozyme® IV bolus in GAA KO mice (comparison study of Table 3); assay type: in vivo, mouse; conditions: 4 doses 20 mg/kg IV bolus at 2 week intervals, 3 days after the last dose
# [6] = rat, iv
# GAA KO mice [7] = test: Repeat subcutaneous dosing of rhGAA or rhGAA + 1-DNJ co-formulation in GAA KO mice (Example 13); assay type: in vivo, mouse; conditions: 4 hours after the final SQ dose
# Experimental: 12-week old male GAA KO mice in groups of 7 were used in the present study. Each group of mice was administered one of the following treatments:
# (2) Lumizyme® alone (20 mg/kg) delivered subcutaneously (SQ); or
# (3) Co-formulated Lumizyme® (20 mg/kg) and 1-DNJ (30 mg/kg) SQ.
# Each of the treatments were administered to their respective treatment group for a period of 2 weeks. The treatments were administered on Monday and Thursday of each week. SQ injections were administered between the shoulder blades of each mouse receiving treatment. A total of 4 doses was administered to each study animal. Diphenhydramine was administered intraperitoneally (IP) before the 3rd and 4th doses.
# rhGAA and glycogen levels were determined according to the following sampling protocol. Blood was taken from each study animal after the 4th dose for plasma pharmacokinetic analysis. GAA activity, Western blots, and 1-DNJ levels were determined for plasma samples taken 2 and 4 hours after the last SQ dose.
# Tissue samples were collected to determine rhGAA uptake 3 days following the last dose of the study (i.e., 3 days post dose 4). Tissue samples included heart, diaphragm, tongue, brain, spleen, liver, biceps, triceps, quadriceps, soleus, gastrocnemius, ventral skin and dorsal skin from the SQ injection site. Tissue samples were also collected to determine glycogen concentration 14 days following the last dose of the study (i.e., 14 days post dose 4).
# rhGAA (e.g., Myozyme®) = target: T2, rhGAA (e.g., Myozyme®) (Homo sapiens, UniProt P10253); test: rhGAA enzyme inactivation in citrate anti-coagulated whole blood at 37° C. (Examples 7, 8); assay type: in vitro ADME; conditions: for enzyme inactivated in whole blood: no 1-DNJ-HCl
# T2 construct: purchased Genzyme Corp; host or cells: Chinese hamster ovary cell line
# Experimental: Aliquots were collected at 0, 2, 4, 8 and 24 hrs and centrifuged to obtain plasma. These plasma samples were then diluted in potassium acetate buffer (pH 4.0) and assayed for GAA activity using the 4-methylumbeliferyl-α-glucose (4-MUG) fluorogenic substrate. The measured GAA activity for individual samples at each time point was normalized to the 0 hr and expressed as % of initial activity. Data from 4 independent experiments were analyzed to obtain the mean (and standard deviation) and plotted versus time to assess the loss of enzyme activity over this time course.
# Aliquots were collected at 0, 3 and 6 hrs and centrifuged to obtain plasma. These plasma samples were then diluted in potassium acetate buffer (pH 4.0) and assayed for GAA activity using the 4-methylumbeliferyl-α-glucose (4-MUG) fluorogenic substrate. The measured GAA activity for individual samples at each time point was normalized to the 0 hr and expressed as % of initial activity.
# Moreover, since Myozyme® has a long plasma half-life (reported to be more than 3 hrs), there is a high probability that an appreciable amount of the enzyme remains in the circulation many hours after the infusion that would also be prone to inactivation.
# Based on human plasma PK data, these concentrations are readily obtainable in the clinic.
substance,measurement,setting,value
alglucosidase alfa [Myozyme®],plasma half-life,[1],more than 3 hrs
same,Myozyme® tissue uptake (as a measure of GAA activity) over time,GAA KO mice [2],declined at 7 days post injection
same,glycogen reduction in diaphragm,GAA KO mice [3],41±4%
same,glycogen reduction in heart,GAA KO mice [3],93±1%
same,glycogen reduction in quadriceps,GAA KO mice [3],18±4%
same,glycogen reduction in soleus,GAA KO mice [3],69±3%
same,stability of Myozyme® at lysosomal pH vs ER pH,[4],much more stable at lysosomal pH (5.2) than at ER pH (7.4)
same,"rhGAA activity uptake, Biceps",GAA KO mice [5],10.1 nmol/mg/h
same,"rhGAA activity uptake, Diaphragm",GAA KO mice [5],7.1 nmol/mg/h
same,"rhGAA activity uptake, Gastrocnemius",GAA KO mice [5],17.9 nmol/mg/h
same,"rhGAA activity uptake, Heart",GAA KO mice [5],1.8 nmol/mg/h
same,"rhGAA activity uptake, Quadriceps",GAA KO mice [5],6.9 nmol/mg/h
same,"rhGAA activity uptake, Skin",GAA KO mice [5],27.1 nmol/mg/h
same,"rhGAA activity uptake, Soleus",GAA KO mice [5],8.0 nmol/mg/h
same,"rhGAA activity uptake, Tongue",GAA KO mice [5],12.4 nmol/mg/h
same,"rhGAA activity uptake, Triceps",GAA KO mice [5],3.9 nmol/mg/h
"rhGAA: recombinant human acid α-glucosidase; Myozyme® in Examples 7-8, Lumizyme® in Example 13, product not named in Examples 5-6",in vivo half life of rhGAA,[6],1.4 ± 0.2 h
same,plasma rhGAA levels,GAA KO mice [7],increased compared to the levels in the 2 hour samples
same,enzyme inactivated in whole blood,"rhGAA (e.g., Myozyme®); by 4 hrs",approximately 40%
same,enzyme inactivated in whole blood,"rhGAA (e.g., Myozyme®); by 8 hrs",~70%
same,enzyme inactivated in whole blood,"rhGAA (e.g., Myozyme®); by 24 hrs",~100%
same,enzyme activity in whole blood,"rhGAA (e.g., Myozyme®); incubated with 50 μM 1-DNJ-HCl, up to 24 hrs",remained completely active
